T1: PICS-1^5-282 (almost full-length PICS-1) (C. elegans, UniProt O76616 5-282)
T1 construct: Cloned into pET28-MHL; Two copies in the 2:2:2 complex with ERH-2 and TOFU-6^RRM; source: E. coli BL21(DE3), purified (Ni-NTA, TEV cleavage, second Ni-NTA); not shown: His tag (inferred from the Ni-NTA purification), N-terminal, cleaved
T1 sequence (looked up): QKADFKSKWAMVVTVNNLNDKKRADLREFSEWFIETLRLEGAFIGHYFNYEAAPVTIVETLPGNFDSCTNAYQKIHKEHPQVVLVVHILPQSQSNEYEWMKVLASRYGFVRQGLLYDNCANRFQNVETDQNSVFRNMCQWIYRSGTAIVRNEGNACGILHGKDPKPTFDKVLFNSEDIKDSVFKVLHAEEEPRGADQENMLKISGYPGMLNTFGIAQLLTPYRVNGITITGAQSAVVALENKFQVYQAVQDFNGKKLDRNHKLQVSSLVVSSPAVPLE

T2: PICS-1^5-282 (C. elegans, UniProt O76616 5-282)
T2 construct: Cloned into pET28-MHL; also called almost full-length PICS-1; source: E. coli BL21(DE3), purified (Ni-NTA, TEV, second Ni-NTA); not shown: His tag (from the Ni-NTA purification), N-terminal, cleaved
T2 sequence (looked up): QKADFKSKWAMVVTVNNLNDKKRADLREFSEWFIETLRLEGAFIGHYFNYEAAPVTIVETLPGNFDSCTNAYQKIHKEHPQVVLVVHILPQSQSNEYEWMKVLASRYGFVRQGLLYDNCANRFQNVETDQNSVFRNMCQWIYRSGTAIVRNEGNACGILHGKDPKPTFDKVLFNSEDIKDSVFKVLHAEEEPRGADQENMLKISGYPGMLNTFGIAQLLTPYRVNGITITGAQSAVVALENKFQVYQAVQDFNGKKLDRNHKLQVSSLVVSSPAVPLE

T3: ERH-2 (C. elegans, UniProt Q20057 1-113)
T3 construct: ERH-2, C. elegans, amplified from a cDNA library; also called ERH-2 wild type; source: E. coli BL21(DE3), purified (Ni-NTA, TEV cleavage, second Ni-NTA); not shown: His tag (inferred from the Ni-NTA purification), N-terminal, cleaved
T3 sequence (looked up): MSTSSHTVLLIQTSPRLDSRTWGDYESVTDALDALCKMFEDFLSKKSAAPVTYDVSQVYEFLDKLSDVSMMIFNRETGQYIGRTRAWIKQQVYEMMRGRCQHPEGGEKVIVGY

T4: ERH-2 D67A (C. elegans, UniProt Q20057 1-113, D67A)
T4 construct: ERH-2, C. elegans, with D67A; Cloned into pET28-MHL; also called D67A(ERH-2); source: E. coli BL21(DE3), purified (Ni-NTA, TEV cleavage, second Ni-NTA); not shown: His tag (inferred from the Ni-NTA purification), N-terminal, cleaved
T4 sequence (looked up): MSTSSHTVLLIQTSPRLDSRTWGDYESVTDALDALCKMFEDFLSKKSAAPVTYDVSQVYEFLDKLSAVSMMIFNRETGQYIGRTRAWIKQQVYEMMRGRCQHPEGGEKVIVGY

T5: ERH-2^1-103-(Gly-Ser-Ser)7-PICS-1^180-200 fusion protein (C. elegans, UniProt Q20057 1-103; O76616 180-200)
T5 construct: ERH-2, C. elegans, residues 1-103; 21-aa linker (Gly-Ser-Ser)7; PICS-1 (PID-3), C. elegans, EBM, residues 180-200; the methods describe only the 1-103 fusion; also called ERH-2-(GSS)7-PICS-1180-200; ERH-2-(GSS)7-PICS-1; source: E. coli BL21(DE3), purified (Ni-NTA, TEV cleavage, second Ni-NTA, Superdex 75); not shown: His tag (inferred from the Ni-NTA purification), N-terminal, cleaved
T5 chain: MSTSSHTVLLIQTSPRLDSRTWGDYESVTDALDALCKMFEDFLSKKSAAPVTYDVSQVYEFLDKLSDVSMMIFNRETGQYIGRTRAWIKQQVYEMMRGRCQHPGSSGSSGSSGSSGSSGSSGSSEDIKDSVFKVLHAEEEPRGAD

B1: TOFU-6 RRM domain (TOFU-6^RRM, residues 2-92) (domain or fragment, C. elegans, UniProt Q09293 2-92, looked up)
chain: ASSSTAYYLKDAGFHIRNIPKAWNDWNLFHVFQNFGKVSYCRVVGQSNDGQVQLGFVNMMSVADADEVRKNLNDGNLIGENFTLKVTDHKN
notes: TOFU-6, C. elegans, RRM domain, residues 2-92; source: E. coli BL21(DE3), purified (Ni-NTA, TEV cleavage, second Ni-NTA); not shown: His tag (inferred from the Ni-NTA purification), N-terminal, cleaved
B2: TOFU-6^RRM (residues 2-92) (domain or fragment, C. elegans, UniProt Q09293 2-92, looked up)
chain: ASSSTAYYLKDAGFHIRNIPKAWNDWNLFHVFQNFGKVSYCRVVGQSNDGQVQLGFVNMMSVADADEVRKNLNDGNLIGENFTLKVTDHKN
notes: TOFU-6, C. elegans, RRM domain, residues 2-92; Gene codon-optimised and synthesised; for the crystal co-expressed with PICS-1^RRM from a modified pETDuet-1; also called TOFU-6 RRM domain; TOFU-6^C; source: E. coli BL21(DE3), purified (Ni-NTA, TEV, second Ni-NTA; complex with PICS-1^RRM also Superdex 75); not shown: His tag (from the Ni-NTA purification), N-terminal, cleaved
B3: PICS-1^RRM F217E (domain or fragment, C. elegans, UniProt O76616 201-282, looked up)
chain: QENMLKISGYPGMLNTEGIAQLLTPYRVNGITITGAQSAVVALENKFQVYQAVQDFNGKKLDRNHKLQVSSLVVSSPAVPLE
notes: Cloned into pET28-MHL; the homodimer is disrupted by the mutation; source: E. coli BL21(DE3), purified (Ni-NTA, TEV, second Ni-NTA, Superdex 75); not shown: His tag (from the Ni-NTA purification), N-terminal, cleaved
B4: SUMO-PICS-1^180-200 (ERH-2 binding motif, EBM) (domain or fragment, C. elegans, UniProt O76616 180-200, looked up)
chain: EDIKDSVFKVLHAEEEPRGAD
notes: Fused to the C-terminus of SUMO (pET28-SUMO); the Kds are for the SUMO fusion; also called PICS-1EBM; source: E. coli BL21(DE3), purified (Ni-NTA); not shown: SUMO, N-terminal, kept
B5: SUMO-PID-1^50-70 (domain or fragment, C. elegans, UniProt Q19541 50-70, looked up)
chain: TNLHRKVTLSDRFELAALGYE
notes: PID-1, C. elegans, residues 50-70; Fused to the C-terminus of SUMO; the Kds are for the SUMO fusion; also called PID-1 fragment; source: E. coli BL21(DE3), purified (Ni-NTA); not shown: SUMO, N-terminal, kept
B6: SUMO-TOST-1^34-54 (domain or fragment, C. elegans, UniProt Q18490 34-54, looked up)
chain: NKRITLNERFGVLEKGYTIQA
notes: TOST-1, C. elegans, residues 34-54; Fused to the C-terminus of SUMO (pET28-SUMO); the Kds are for the SUMO fusion; also called TOST-1 fragment; source: E. coli BL21(DE3), purified (Ni-NTA); not shown: SUMO, N-terminal, kept

How the values were obtained:
Conditions in all cases: both partners purified
[1] = target: T1, PICS-1^5-282 (almost full-length PICS-1); test: SEC; ERH-2 and TOFU-6^RRM mixed with PICS-1 5-282, PICS-1 5-200 or PICS-1 ΔEBM; Superose 6 Increase 10/300 GL; 20 mM Tris pH 8.5, 200 mM NaCl; peaks analysed by SDS-PAGE
PICS-1^5-282 = target: T2, PICS-1^5-282; test: SEC; ERH-2 and TOFU-6^RRM mixed with PICS-1 constructs, Superose 6 Increase 10/300 GL, 20 mM Tris hydrochloride pH 8.5, 200 mM NaCl; fractions on SDS-PAGE
[2] = target: B2; test: ITC; MicroCal ITC200, 25 °C, 20 mM Tris pH 8.5, 200 mM NaCl or 20 mM MES pH 6.5, 200 mM NaCl; 1–2 mM in the syringe into 30–50 μM in the cell; one-site binding model
ERH-2 = target: T3, ERH-2; test: ITC; MicroCal ITC200, 25 °C; 20 mM Tris pH 8.5, 200 mM NaCl or 20 mM MES pH 6.5, 200 mM NaCl; 1-2 mM protein or peptide in the syringe titrated into 30-50 μM protein in the cell; one-site model; Kd mean ± SD of a minimum of two experiments
ERH-2 D67A = target: T4, ERH-2 D67A; test: as above
[3] = target: T5, ERH-2^1-103-(Gly-Ser-Ser)7-PICS-1^180-20 …; test: as above

Row | Binder | stoichiometry N (ERH-2) | stoichiometry N [3] | also measured
1 | B1 |  |  | binding result [1]: binds
2 | B2 |  |  | binding result (PICS-1^5-282): binds
3 | B3 |  |  | Kd [2]: 570 nM
4 | B4 | 0.7 |  | stoichiometry N (ERH-2 D67A): 0.8
5 | B5 | 1 | 1.3 | 
6 | B6 | 0.9 | 0.9 | Kd [3]: 4900 nM

From article PMC8458385, “Molecular basis for PICS-mediated piRNA biogenesis and cell division” (Nature Communications, 2021)
